The results in this text go back to US20230391872A1 (ANAPTYSBIO, published 2023).

Data set [1] addresses cynomolgus monkey BTLA on cells (stably transfected 293c18 clone 1G5; cynomolgus peripheral blood T and B cells) (cynomolgus monkey). In words: flow cytometry dot plot, CD3 (PerCP Cy5.5) against BTLA (APC), lysed cynomolgus monkey whole blood, antibody at 33 nM. (A flow cytometer gives signals particle by particle.)
The target in data set [2] is human BTLA on cells (stably transfected 293c18 cells; human peripheral blood T and B cells) (human) (UniProt Q7Z6A9). In words: flow cytometry (MFI) on gated CD8+ T cells of human PBMC, APC-labelled antibody [middle panel (Naive CD8+ T cells].
For data set [3] the target is unchanged. As to the kind of experiment: flow cytometry (MFI) on gated CD4+ T cells of human PBMC, APC-labelled antibody [left panel (Naive CD4+ T cells].
Data set [4] concerns the target T1, recombinant human BTLA monomer, hBTLA amino acids 31-155 followed by a 6-his tag (human, UniProt Q7Z6A9 31-155).
T1 construct: Antigen of the hydrogen-deuterium exchange experiments
T1 sequence: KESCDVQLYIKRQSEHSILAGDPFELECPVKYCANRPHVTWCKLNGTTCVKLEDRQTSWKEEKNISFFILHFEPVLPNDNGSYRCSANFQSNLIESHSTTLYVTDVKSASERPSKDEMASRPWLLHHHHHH
As to the kind of experiment: hydrogen-deuterium exchange with recombinant human BTLA monomer. On the procedure:
Hydrogen-deuterium exchange mapping of the peptides on BTLA bound by the 6G3 and 10D8 antibodies disclosed herein was performed using recombinant human BTLA monomer. […] FIGS. 7A, 7B, and 7C show a ribbon model of the crystal structure of human BTLA extracellular domain (black) in complex with a space-filling model of the crystal structure of human HVEM extracellular binding domain (light gray) rendered in PyMOL from Protein Data Bank structure (Compaan et al., J. Biol Chem 280: 39553-39561 (2005)). FIG. 7A summarizes a hydrogen-deuterium exchange experiment using the 6G3 antibody (APE12839.05 (H Chain SEQ ID NO: 144, L Chain SEQ ID NO: 174)), FIG. 7B summarizes a hydrogen-deuterium exchange experiment using the 10D8 antibody (APE11482.06), and FIG. 7C summarizes a hydrogen-deuterium exchange experiment using a reference BTLA antagonist antibody (APE10693.17). For each experiment, the BTLA/antibody mixture or BTLA alone was deuterium labeled for 4, 10, or 60 minutes in order to see the exchange kinetics. After incubation, the BTLA protein was subjected to rapid enzymatic proteolysis at acidic pH and the incorporation of deuterium into resulting peptides quantified by liquid chromatography-mass spectrometry.

Data set [5] deals with T2, purified recombinant BTLA-ECD (Example 19).
T2 sequence (Q7Z6A9 31-157, species assumed, looked up): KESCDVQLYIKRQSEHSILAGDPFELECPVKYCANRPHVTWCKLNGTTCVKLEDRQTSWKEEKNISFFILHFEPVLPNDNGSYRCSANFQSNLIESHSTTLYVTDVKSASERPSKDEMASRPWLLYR

For data set [6], the target named is T3, cynomolgus monkey BTLA ECD-his (monomeric cynomolgus monkey BTLA-his) (cynomolgus monkey, UniProt A0A2K5W7M7 31-157).
T3 construct: extracellular domain; also called cynomolgus monkey BTLA extracellular domain
T3 sequence: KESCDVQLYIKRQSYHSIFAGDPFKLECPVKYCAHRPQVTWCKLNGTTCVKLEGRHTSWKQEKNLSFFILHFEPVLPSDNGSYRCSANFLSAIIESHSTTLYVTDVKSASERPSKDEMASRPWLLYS
In words: SPR, Biacore T200, antibody captured on anti-human IgG, monomeric cynomolgus monkey BTLA-his as analyte, 25 °C, 1:1 model; 6G3 IgG1 (APE10585.04) captured on the chip; cynomolgus BTLA-his analyte. On the procedure:
(§1) Surface plasmon resonance (SPR) analyses were carried out using a Biacore T200 (GE Healthcare Life Sciences). Kinetic constants were determined using a 1:1 binding model in the Biacore T200 Evaluation Software to calculate on- and off-rates (kₐ and kd, respectively), and dissociation constants as a measure of overall affinity (KD). Anti-human IgG (GE Healthcare Life Sciences) was immobilized on a CMS chip using EDC-activated amine coupling chemistry (420 seconds contact at a flow rate of 10 μl/min). Antibodies (APE10585.04 6G3 IgG1 and APE10840.05 6G3 IgG4), each at 0.5 μg/m1) were captured in a 60 second contact with the flow cell using a flow rate of 10 μl/min. Monomeric human BTLA-his or cynomolgus monkey BTLA-his at 60 nM, 20 nM, 6.7 nM and 2.2 nM concentrations was flowed over captured antibody (480 seconds association, 1800 seconds dissociation). Runs were at 25° C. and used buffer containing 10 mM HEPES, pH 7.6, 150 mM NaCl, 3 mM EDTA, 0.05% polysorbate 20 (HBS-EP+, pH 7.6; Teknova) for the mobile phase and all dilutions. At the end of each cycle, bound antigen was removed by regeneration with two successive exposures (60 seconds and 90 seconds) to 3 M MgCl2 (30 μl/min). Sensorgrams and binding constants corresponding to the experiment are shown in FIG. 1 (human BTLA) and FIG. 1 (cynomolgus monkey BTLA). […]
Background: SPR reads the build-up and loss of mass on a sensor chip optically.

Data set [7] concerns the target T4, human BTLA ECD-his (monomeric human BTLA-his) (human, UniProt Q7Z6A9 31-157).
T4 construct: extracellular domain; also called human BTLA extracellular domain
T4 sequence (looked up): T2 sequence (Q7Z6A9 31-157, species assumed, looked up)
In words: SPR, Biacore T200, antibody captured on anti-human IgG, monomeric human BTLA-his as analyte, 25 °C, 1:1 model; 6G3 IgG1 (APE10585.04) captured on the chip; human BTLA-his analyte. On the procedure:
as §1

In data set [8] the target is T3, cynomolgus monkey BTLA ECD-his …. In words: SPR (Biacore T200), antibody captured on anti-human IgG chip, monomeric BTLA-his flowed at 60, 20, 6.7 and 2.2 nM, 1:1 binding model, 25 C [lower left panel (Cyno BTLA]. The protocol:
(§2) Surface plasmon resonance (SPR) analyses were carried out using a Biacore T200 (GE Healthcare Life Sciences). Kinetic constants were determined using a 1:1 binding model in the Biacore T200 Evaluation Software to calculate on- and off-rates (kₐ and kd, respectively), and dissociation constants as a measure of overall affinity (KD). Anti-human IgG (GE Healthcare Life Sciences) was immobilized on a CMS chip using EDC-activated amine coupling chemistry (420 seconds contact at a flow rate of 10 μl/min). Antibodies (APE10585.04 6G3 IgG1 and APE10840.05 6G3 IgG4), each at 0.5 μg/m1) were captured in a 60 second contact with the flow cell using a flow rate of 10 μl/min. Monomeric human BTLA-his or cynomolgus monkey BTLA-his at 60 nM, 20 nM, 6.7 nM and 2.2 nM concentrations was flowed over captured antibody (480 seconds association, 1800 seconds dissociation). Runs were at 25° C. and used buffer containing 10 mM HEPES, pH 7.6, 150 mM NaCl, 3 mM EDTA, 0.05% polysorbate 20 (HBS-EP+, pH 7.6; Teknova) for the mobile phase and all dilutions. At the end of each cycle, bound antigen was removed by regeneration with two successive exposures (60 seconds and 90 seconds) to 3 M MgCl2 (30 μl/min). Sensorgrams and binding constants corresponding to the experiment are shown in FIG. 1 (human BTLA) and FIG. 1 (cynomolgus monkey BTLA). Antibody capture levels in resonance units (RU) are listed at the right side of each panel.

Data set [9] deals with T4, human BTLA ECD-his (monomeric human …). In words: SPR (Biacore T200), antibody captured on anti-human IgG chip, monomeric BTLA-his flowed at 60, 20, 6.7 and 2.2 nM, 1:1 binding model, 25 C [upper left panel (Hu BTLA]. The protocol: as §2

What is called EC50 (read off the curve) is the concentration that produces a half-maximal response. By Kd is commonly meant the free concentration of one partner at which half of the binding sites on the other are occupied at equilibrium, for simple one-to-one binding. What is called koff is the rate constant with which the complex falls apart. As usually defined, the kon is a measure of how fast the partners come together.

Take “APC-Mouse Anti-Human CD272 (BTLA) reference antibody, clone J168-540 (BD Biosciences)”: in [1], the Q8-2 (percent CD3+ BTLA+ cells) stood at 35.8%, the Q8-4 (percent CD3- BTLA+ cells) stood at 28% and the Total BTLA (percent of gated cells BTLA-positive) was 63.9%.
As to “reference anti-BTLA antibody MIH26 (APC-labeled, BioLegend)”, the concentration giving a half-maximal response (EC50 (read off the curve)) in [2] worked out at 3 nM; in data set [3], 2 nM.

B1: 10D8 antibody (APE11482.06) (antibody, V domains shown)
VH: QVQLVQSGAEVKKPGASVKVSCKASGYTLTDYTIHWVRQAPGQRLEWMGWIYPGSGNTKYNDEFKVRVTITRDTSASTAYMELSSLRSEDTAVYYCARRNYYAMEYWGQGTTVTVSS
VL: DIQMTQSPSSLSASVGDRVTITCKASQNVFTNVAWFQQKPGKAPKPLIYSASYRYSGVPSRFSGSGSGTDFTLTISSLQPEDFATYYCQQYSTYPYTFGQGTKLEIKR
With B1, in data set [4], the binding result is “binds”.

B2: purified recombinant Proteinase 3 (PR3) (protein)
chain: IVGGHEAQPHSRPYMASLQMRGNPGSHFCGGTLIHPSFVLTAAHCLRDIPQRLVNVVLGAHNVRTQEPTQQHFSVAQVFLNNYDAENKLNDVLLIQLSSPANLSASVATVQLPQQDQPVPHGTQCLAMGWGRVGAHDPPAQVLQELNVTVVTFFCRPHNICTFVPRRKAGICFGDSGGPLICDGIIQGIDSFVIWGCATRLFPDFFTRVALYVDWIRSTLR
In the case of B2, in data set [5], the “proteolytic cleavage after co-incubation up to 60 minutes (gel lanes)” value is listed as “soluble BLTA-ECD was cleaved into multiple smaller fragments”.

B3: 6G3 IgG1 anti-BTLA antibody (APE10585.04) (antibody, V domains shown)
VH: QVQLVQSGAEVKKPGSSVKVSCKASGYVFSTSWMNWVRQAPGQGLEWMGRIYPGDADTNYVGKFKGRVTITADKSTTTAYMELSSLRSEDTAVYFCAKSGTFNFGNYRWYFDVWGKGTTVTVSS
VL: AIQLTQSPSSLSASVGDRVTITCRVSENIYSHLAWYQQKPGKAPKLLIYAATNLALGVPSRFSGSGSGTDYTLTISSLQPEDFATYYCQLFWGPPLTFGGGTKVEIKR
notes: Same variable regions as 6G3 IgG4, in IgG1 format; also called APE10585.x; APE10585.04 6G3 IgG1
For B3, the Kd in data set [6] is approximately 11 nM; in data set [7], approximately 5 nM; in data set [8], 10.8 nM; in data set [9], 3.56 nM. For the same molecule, the results for the off-rate (koff) in data set [8] and in [9] were 0.00295 s⁻¹ and 0.000245 s⁻¹, respectively. For the same molecule, the kon stood at 272000 M⁻¹ s⁻¹ in data set [8] and 68900 M⁻¹ s⁻¹ in [9].
